Test results: article PMC7736783 (Nucleic Acids Research, 2020)

Assays:
[1] = target: the molecule itself; experiment: cryo-EM structure; co-expressed complexes purified by gel filtration, on graphene oxide grids; maps of 6.1, 4.5 and 19 Å with known structures docked as rigid bodies
[2] = target: T1, HDAC1 (residues 1–482) (UniProt Q13547 1-482); experiment: as above; settings: both partners purified
T1 construct: Two copies stand in the HDAC1:MTA1 dimer complex; also called histone deacetylase 1; source: HEK293F, co-transfected, in lysate; co-purified (FLAG resin, TEV protease, Superose 6)

[3] = target: T2, MBD2 (residues 145–411) (UniProt Q9UBB5 145-411); experiment: co-IP; HEK293F cells co-transfected with His10-Flag3-MTA1 construct, HDAC1 and MBD2; clarified lysate on FLAG resin 30 min, washes in 50 mM Tris-HCl pH 7.5, 100 mM potassium acetate, 5% glycerol, RNase A, elution with TEV protease; SDS-PAGE; DNA ratios 1:1:1 and 1:1:4; settings: partners not purified
T2 construct: also called untagged MBD2; source: HEK293F, co-transfected, in lysate; co-purified (FLAG resin, TEV protease, Superose 6)

[4] = target: T1, HDAC1 (residues 1–482); experiment: as above; settings: partners not purified
[5] = target: the molecule itself; experiment: SEC; FLAG-purified, TEV-eluted co-expressed complex run on a Superose 6 column; fractions on SDS-PAGE
[6] = target: T3, Strep-MBD2 (residues 114–411) (UniProt Q9UBB5 114-411); experiment: co-IP; HEK293F cells co-transfected with His10-Flag3-MTA1 construct, HDAC1 and MBD2; clarified lysate on FLAG resin 30 min, washes in 50 mM Tris-HCl pH 7.5, 100 mM potassium acetate, 5% glycerol, RNase A, elution with TEV protease; SDS-PAGE; DNA ratios 1:1:1 and 1:1:4; settings: partners not purified
T3 construct: MBD2, residues 114–411; source: HEK293F, co-transfected, in lysate; co-purified (FLAG resin, TEV protease, Superose 6)

[7] = target: the molecule itself; experiment: SEC-MALS; peak fraction of the gel filtration-pure HDAC1:MTA1:MBD2 complex re-run on Superose 6 with refractive index and MALS detectors

T1 sequence (Q13547 whole entry, the tested form may be a part): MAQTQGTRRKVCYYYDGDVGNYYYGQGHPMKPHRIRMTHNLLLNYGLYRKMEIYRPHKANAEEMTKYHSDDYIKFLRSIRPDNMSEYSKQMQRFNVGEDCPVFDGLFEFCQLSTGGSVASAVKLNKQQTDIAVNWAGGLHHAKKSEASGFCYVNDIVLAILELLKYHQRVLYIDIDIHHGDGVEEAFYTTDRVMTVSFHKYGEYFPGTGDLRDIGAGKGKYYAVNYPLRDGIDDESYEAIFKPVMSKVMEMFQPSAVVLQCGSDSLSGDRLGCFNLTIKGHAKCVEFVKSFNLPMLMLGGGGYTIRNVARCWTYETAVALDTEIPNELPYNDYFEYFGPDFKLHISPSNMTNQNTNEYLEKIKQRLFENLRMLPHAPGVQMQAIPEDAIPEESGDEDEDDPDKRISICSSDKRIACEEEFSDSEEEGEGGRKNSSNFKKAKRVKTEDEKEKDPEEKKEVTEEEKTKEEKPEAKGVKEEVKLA
T2 sequence (Q9UBB5 145-411): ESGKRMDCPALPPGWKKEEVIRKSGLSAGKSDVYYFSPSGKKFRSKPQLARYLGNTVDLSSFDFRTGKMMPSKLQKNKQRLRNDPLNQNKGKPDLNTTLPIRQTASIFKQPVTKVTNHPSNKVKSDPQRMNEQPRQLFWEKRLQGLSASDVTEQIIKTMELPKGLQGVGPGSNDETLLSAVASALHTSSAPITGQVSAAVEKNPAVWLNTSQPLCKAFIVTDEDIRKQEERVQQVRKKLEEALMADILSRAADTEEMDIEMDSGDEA
T3 sequence (Q9UBB5 114-411): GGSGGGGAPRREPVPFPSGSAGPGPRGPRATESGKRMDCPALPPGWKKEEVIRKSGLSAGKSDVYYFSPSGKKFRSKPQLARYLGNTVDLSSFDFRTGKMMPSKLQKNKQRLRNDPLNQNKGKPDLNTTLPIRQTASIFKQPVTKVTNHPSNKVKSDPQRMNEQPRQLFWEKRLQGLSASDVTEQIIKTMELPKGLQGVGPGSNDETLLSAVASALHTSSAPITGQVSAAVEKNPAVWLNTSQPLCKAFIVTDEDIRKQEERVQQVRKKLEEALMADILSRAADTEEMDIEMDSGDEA

Row | binding result [2] | binding result [3] | binding result [4] | binding result [6] | Binder | binding result [1] | binding result [5] | stoichiometry N [7]
1 | binds |  |  |  | MTA1 BAH-ELM2-SANT-ZnF (residues 1–453) (domain or fragment, UniProt Q13330 1-453, looked up, MTA1, BAH, ELM2, SANT and GATA zinc finger domains, residues 1–453; also called extended MTA1 construct; source: HEK293F, co-transfected; co-purified (FLAG resin, TEV protease, Superose 6); not shown: His10-Flag3, N-terminal, cleaved) MAANMYRVGDYVYFENSSSNPYLIRRIEELNKTANGNVEAKVVCFYRRRDISSTLIALADKHATLSVCYKAGPGADNGEEGEIEEEMENPEMVDLPEKLKHQLRHRELFLSRQLESLPATHIRGKCSVTLLNETESLKSYLEREDFFFYSLVYDPQQKTLLADKGEIRVGNRYQADITDLLKEGEEDGRDQSRLETQVWEAHNPLTDKQIDQFLVVARSVGTFARALDCSSSVRQPSLHMSAAAASRDITLFHAMDTLHKNIYDISKAISALVPQGGPVLCRDEMEEWSASEANLFEEALEKYGKDFTDIQQDFLPWKSLTSIIEYYYMWKTTDRYVQQKRLKAAEAESKLKQVYIPNYNKPNPNQISVNNVKAGVVNGTGAPGQSPGAGRACESCYTTQSYQWYSWGPPNMQCRLCASCWTYWKKYGGLKMPTRLDGERPGPNRSNMSPHGL | binds |  | 
2 |  | binds | binds |  | MTA1-Δ12 (MTA1 162–354 with part of ELM2 helix 2 deleted) (domain or fragment, UniProt Q13330 162-354, looked up, Tag cleaved off by TEV protease before the gel filtration; Runs as a dimeric and a monomeric species on Superose 6; source: HEK293F, co-transfected, in lysate; co-purified (FLAG resin, TEV protease, Superose 6); not shown: His10-Flag3, N-terminal, kept) ADKGEIRVGNRYQADITDLLKEGEEDGRDQSRLETQVWEAHNPLTDKQIDQFLVVARSVGTFARALDCSSAASRDITLFHAMDTLHKNIYDISKAISALVPQGGPVLCRDEMEEWSASEANLFEEALEKYGKDFTDIQQDFLPWKSLTSIIEYYYMWKTTDRYVQQKRLKAAEAESKLKQV |  | binds | 
3 |  | binds | binds | binds | MTA1 ELM2-SANT domain (residues 162–354) (domain or fragment, UniProt Q13330 162-354, looked up, The tag held the complex on the FLAG resin; it was cleaved off by TEV protease before gel filtration, SEC-MALS, the Strep-Tactin step and cryo-EM; also called MTA1 wildtype; source: HEK293F, co-transfected, in lysate; co-purified (FLAG resin, TEV protease, Superose 6); not shown: His10-Flag3, N-terminal, kept) ADKGEIRVGNRYQADITDLLKEGEEDGRDQSRLETQVWEAHNPLTDKQIDQFLVVARSVGTFARALDCSSSVRQPSLHMSAAAASRDITLFHAMDTLHKNIYDISKAISALVPQGGPVLCRDEMEEWSASEANLFEEALEKYGKDFTDIQQDFLPWKSLTSIIEYYYMWKTTDRYVQQKRLKAAEAESKLKQV |  |  | 2
